Measurements reported in US20110311550A1 (Scripps Research, published 2011).
Numbering of substitutions follows the chain as printed.

Key:
[1] = target: T1, HCV E1E2 complex, isolate H77 (genotype 1a) (hepatitis C virus genotype 1a, isolate …, UniProt P27958 192-383; P27958 384-746); assay: Fab screen after panning on E1E2 (H77)
[2] = target: HCV E1E2 antigen, isolate UKN6.5.8 (hepatitis C virus, isolate UKN6.5.8); assay: ELISA, Fab on E1E2 antigen
[3] = target: HCV E1E2 antigen, isolate UKN4.21.16 (hepatitis C virus, isolate UKN4.21.16); assay: ELISA, Fab on E1E2 antigen
[4] = target: HCV E1E2 antigen, isolate J6E3 (hepatitis C virus, isolate J6E3, UniProt P26660 192-383; P26660 384-750); assay: ELISA, Fab on E1E2 antigen
[5] = target: HCV E1E2 antigen, isolate UKN1B12.16 (hepatitis C virus, isolate UKN1B12.16); assay: ELISA, Fab on E1E2 antigen
[6] = target: HCV E1E2 antigen, isolate UKN2B1.1 (hepatitis C virus, isolate UKN2B1.1); assay: ELISA, Fab on E1E2 antigen
[7] = target: HCV E1E2 antigen, isolate UKN3A1.28c (hepatitis C virus, isolate UKN3A1.28c); assay: ELISA, Fab on E1E2 antigen
[8] = target: HCV E1E2 antigen, isolate UKN5.15.7 (hepatitis C virus, isolate UKN5.15.7); assay: ELISA, Fab on E1E2 antigen
[9] = target: HCV E1E2 antigen, isolate OH8 (hepatitis C virus, isolate OH8); assay: ELISA, Fab on E1E2 antigen
[10] = target: HCV E1E2 antigen, isolate CH35 (hepatitis C virus, isolate CH35); assay: ELISA, Fab on E1E2 antigen
[11] = target: T2, HCV E1E2 antigen, isolate JFH (hepatitis C virus, isolate JFH, UniProt Q99IB8 192-383; Q99IB8 384-750); assay: ELISA, Fab on E1E2 antigen
T2 construct: also called JFH-1

[12] = target: T1, HCV E1E2 complex, isolate H77 (genotype …); assay: Fab ELISA on unmasked E1E2

B1: Fab L5 (Fab, V domains shown)
VH: VQLLEQSGTEVKKPGSSVKVSCKVPGDTFRSYVITWVRQAPGQGLEWLGGILPFFGTTNLAQKFQGRVTLTADESTTTAYMELSSLRAEDTAVYYCAKAGDLAFGGVIAGGVPHLSHFDPWGQGTLVTVSS
VL: ELTQSPGTLSLSPGERATLSCRASQSVRSNYLAWYQQKPGQAPRLLIYGASSRATGIPDRFSGSGSGTDFTLTISRLEPEDFAMYYCQQYGSSMCSFGQGTKVEIKR
B1: binds [1].

B2: Fab L6 (Fab, V domains shown)
VH: B1 VH with A40S, A88S, S131A
VL: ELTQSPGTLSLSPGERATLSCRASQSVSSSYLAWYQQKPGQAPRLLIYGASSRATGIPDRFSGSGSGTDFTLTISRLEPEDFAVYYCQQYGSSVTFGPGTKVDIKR
B2: binds [1].

B3: Fab U3 (Fab, V domains shown)
VH: VQLLEQSGAEVKRPGSSVKISCKNSGGTFITQAMSWVRQAPGQGLEWMGGIIPIFGTVNYAQKILGRVTITADEDTVSMELSSLGFEDTAVYYCAREVNLKSWNLAHPDVFDIWGQGTLVTVSS
VL: ELTQSPSSLSASVGDRVTITCRASQSIRSYLNWYQQKPGKAPNLLIYSASNLQSGVPSRFRGSGSGTDFTLTISSLQPEDFATYYCQQSYRTPRTFGQGTKVESKR
B3: binds [1].

B4: Fab U1 (Fab, V domains shown)
VH: VQLLEQSGPEVKRPGTSVKMSCKISGGASITQAMSWVRQAPGQGLEWMGGITPIFGTVNYAQKILGRVTITADEDTVSLELSSLKSEDTAVYYCAREVNLKTWNLAHPNVFDVWGQGTMLTVSS
VL: B3 VL with R28S, Y30F, N43K, S48A, N51S, S58P, R61S, R91S, V102L, S104I
B4 was tested, and the “OD 450 nm” value [2] was 0.06 OD 450 nm, the “OD 450 nm” value [3] was 0 OD 450 nm and the “OD 450 nm” value [4] was 0.08 OD 450 nm. The “OD 450 nm” value [5] was 0.11 OD 450 nm, the “OD 450 nm” value [6] was 0 OD 450 nm and the “OD 450 nm” value [7] was 0.11 OD 450 nm. For the same binder, the “OD 450 nm” value [8] was 0.06 OD 450 nm, the “OD 450 nm” value [9] was 0.26 OD 450 nm and the “OD 450 nm” value [10] was 0.07 OD 450 nm. For the same binder, the “OD 450 nm” value [11] was 0.07 OD 450 nm.

B5: Fab N1 (Fab, V domains shown)
VH: VQLLEQSGPEVKKPGDSLRISCKMSGDSLVTTWIGWVRQKPGQGLEWMGIINPGDSSTNIYPGDSATRYGPSFQGQVTISIDKSTSTAYLQWNAVKPSDTGIYYCARHVPVPISGTFLWREREMHDFGYFDDWGQGTLVIVSS
VL: ELTQSPGTLSLSPGERATLSCRASQSVSSSYLAWYQQKPGQAPRLLIYGASNRAAGIPDRFSGSGSGADFTLTISRLEPEDFAVYYCQQYGSSLITFGQGTRLEIKR
notes: Soluble Fab
B5: binds [12].

B6: Fab N2 (Fab, V domains shown)
VH: B5 VH with A94T
VL: ELTQSPGTLSLFPGERATLSCRASQSILGRYLAWYQQKGGRAPRLLIFGASKRATGIPDRFSGSGSGTDFTLTIGRLEPEDFAVYYCQHYGSSITFGQGTRLDIKR
notes: Soluble Fab
B6: binds [12].

B7: Fab J5 (Fab, V domains shown)
VH: VQLLEQSGAEVKKPGSSVTVSCKASGGTVSSYPITWVRQAPGQGLEWMGGTIPVFGAPKYAPKFQGRVTITADESTSTAYMELRSLRSDDTAMYYCAIVGMRGITLVGGLAMNWLDPWGQGTLVIVSS
VL: B1 VL with R28S, T73S, M84V, M94P, C95L, S96T, Q99G
B7: binds [1].

B8: Fab S2 (Fab, V domains shown)
VH: VQLLEQSGAEVKKPGASVKVSCTASGYIFTSFGISWVRQAPGQGLEWMGRIDTYNGKTNYAQKLQGRVTMTTDTYTSTAYMELRSLTSDDTAVYYCARDDCRSSTCYLAQHNWQAYYHDSWGQGTLVTVSS
VL: B1 VL with G7A, R28S, N30R, Y31F, M84V, M94P, C95Q, S96T
B8: binds [1].

B9: Fab T1 (Fab, V domains shown)
VH: EVQLLESGGGLVQPGGSLRLSCAASGFTFSRFWMHWVRQAPGKGLVWVARINSDGSSTTYADSVKGRFTISRDNAKNTLYLQMNSLRDEDTAVYFCARGGDSSSPYYYPMDVWGQGTTVAVSS
VL: not shown
B9 was tested, and the “OD 450 nm” value [2] was 0.01 OD 450 nm, the “OD 450 nm” value [3] was 0.08 OD 450 nm and the “OD 450 nm” value [4] was 0 OD 450 nm. The “OD 450 nm” value [5] was 0 OD 450 nm, the “OD 450 nm” value [6] was 0 OD 450 nm and the “OD 450 nm” value [7] was 0 OD 450 nm. For the same binder, the “OD 450 nm” value [8] was 0.07 OD 450 nm, the “OD 450 nm” value [9] was 0.15 OD 450 nm and the “OD 450 nm” value [10] was 0 OD 450 nm. For the same binder, the “OD 450 nm” value [11] was 0 OD 450 nm.

B10: Fab B5 (Fab, V domains shown)
VH: EVQLLESGAEVKKPGSSVKVSCRASGSPYSSYTITWVRQAPGQGLEWMGGIILMTGKANYAQKFQGRVTITADRATATAYMEMSSLTSDDTAIYYCARDPYVYAGDDVWSLSRWGQGTPVIVSS
VL: ELTQSPLSLPVIIGQPASISCSSSESLVDSDGNTYLHWFQQRPGQSPRRLIYKVSNRDAGVPDRFSGSGSGTDFTLKISRVEAEDVAVYYCMQATHWPPITFGPGTRLEVKR
B10: binds [1].

B11: Fab B4 (Fab, V domains shown)
VH: VQLLEQSGAEVKKPGSSVKVSCRASGSPFSSYTITWVRQAPGQGLEWMGGIILMTGKANYAQKFQGRVTITADRSTTTAYMEMSSPTSDDTAIYYCARDPYVYAGDDVWSLSRWGQGTLVIVSP
VL: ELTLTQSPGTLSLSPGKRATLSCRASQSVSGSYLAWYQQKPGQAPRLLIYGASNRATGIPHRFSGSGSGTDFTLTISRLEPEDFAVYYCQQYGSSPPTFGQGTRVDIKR
B11: binds [1].

B12: Fab B6a (Fab, V domains shown)
VH: B10 VH with E1V, V2Q, Q3L, L5E, E6Q, I121T
VL: LTQSPGTLSLSPGERATLSCRASQSVASNYVAWYQQKPGQAPRLLIYGTSYRATGIPGRFSGSGSGTDFTLTISGLEPEDFAVYYCQQYGSSPQTFGQGTKVEIKR
B12: binds [1].

B13: Fab B6b (Fab, V domains shown)
VH: B10 VH with E1V, V2Q, Q3L, L5E, E6Q, I121T
VL: ELTQSPGTLSLSPGERATLSCRASQSVSRGNLAWYQQKRGQPPRLLIYGASYRATGIPDRFSGSGSGTDFTLTITKLEPEDFAVYYCQQYGHSLAFGQGTKVEIKG
B13: binds [1].

B14: Fab B6c (Fab, V domains shown)
VH: B10 VH with E1V, V2Q, Q3L, L5E, E6Q, I121T
VL: not shown
B14: binds [1].

B15: Fab U2 (Fab, V domains shown)
VH: VQLLEQSGAEVKRPGSSVKLSCKNSGGTFITQAMSWVRQAPGQGLEWMGGIIPVFGTVNYAQNILDRATATADEDTFSLELRGLRLEDTAVYYCAREVNLKTWNLARPDVFDIWGPGTLVTVSS
VL: ELTQSPSSLSASIGDRVTIPCRASQSILNHLNWYQQKPGQPPKLLIFAASNLQSGVPSRFSGSGSGTDFTLTISSLQTEDFATYYCQQSYSTPRTFGQGTKVEVKR
B15: binds [1].

B16: Fab R1 (Fab, V domains shown)
VH: VQLLEQSGAEVKKPGASVKVSCKASGYTFSIYGVAWVRQAPGQGLEWMGWISPQNGDTHSPQKFQGRLTMTTDTSTSTAYMELRSLRSDDTAVYFCARDYGVNFGGGSEHNLDYWGRGTRVTVSS
VL: ELTQSPLSLPVTPGEPASISCRSSYSLLHINGYKYLDWYLQRPGQSPQLLIYLGSNRAPGVPDRFSGSGSGTSFTLKISRVEAEDVGVYYCMQSLQAPWTFGQGTKVEMKR
B16 was tested, and the “OD 450 nm” value [2] was 0.05 OD 450 nm, the “OD 450 nm” value [3] was 0.01 OD 450 nm and the “OD 450 nm” value [4] was 0 OD 450 nm. The “OD 450 nm” value [5] was 0.03 OD 450 nm, the “OD 450 nm” value [6] was 0.02 OD 450 nm and the “OD 450 nm” value [7] was 0 OD 450 nm. For the same binder, the “OD 450 nm” value [8] was 0 OD 450 nm, the “OD 450 nm” value [9] was 0.5 OD 450 nm and the “OD 450 nm” value [10] was 0.15 OD 450 nm. The “OD 450 nm” value [11] was 0 OD 450 nm.

B17: Fab N3 (Fab, V domains shown)
VH: VQLLEQSGAEVKKPGDSLRISCKMSGDSLVWIGWVRQKPGQGLEWMGIINPGDSATNIYPGDSDTRYGPSFQGQVTISIDKSTSTAYLQWNAVKASDTGIYYCARHVPVPISGTFLWREREMHDLGYFDDWGQGTLVIVSS
VL: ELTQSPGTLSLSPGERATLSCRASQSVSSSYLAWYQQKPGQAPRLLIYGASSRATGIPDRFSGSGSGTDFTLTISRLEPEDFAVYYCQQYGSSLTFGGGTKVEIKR
notes: Soluble Fab
B17: binds [12].

B18: Fab E2 (antibody clone, not the glycoprotein) (Fab, V domains shown)
VH: VGLLEQSGAELKKPGSSVKVSCKPSDGTFRAYTLSWVRQAPGQTLEWLGRIMPTVGITNYAQKFQGRVTISADMSTATAYMQLSSLRPDDTAIYYCAKGPYVGLGEGFSEWGQGTLVTVSS
VL: ELTQSPLSLPVTLGQPASISCRSSQSLVYSDGNTYLIWFQQRPGQSPRRLIYNVSNRDSGVPDRFSGSGSGTDFTLKISRVEAEDLGVYYCMQGAHWPPTFGQGTRLEIKG
B18: binds [1].

B19: Fab E3 (Fab, V domains shown)
VH: B18 VH with T44A, L48M, Q62R, Q82E, P88S
VL: ELVLTQSPLSLPVTLGQPASISCRSTQSLVYSDGNTYLNWFHQRPGQPPRRLIYKVSNRDSGVPERFSGSGSGTDFALKISRVEADDVGIYYCMQGAHWPPTFGGGTKVEISR
B19: binds [1].

B20: Fab S1 (Fab, V domains shown)
VH: B8 VH with A16T
VL: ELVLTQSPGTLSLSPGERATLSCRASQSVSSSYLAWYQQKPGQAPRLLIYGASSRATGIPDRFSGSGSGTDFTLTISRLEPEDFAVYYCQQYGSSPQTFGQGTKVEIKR
B20 was tested, and the “OD 450 nm” value [2] was 0.08 OD 450 nm, the “OD 450 nm” value [3] was 1.12 OD 450 nm and the “OD 450 nm” value [4] was 0.07 OD 450 nm. The “OD 450 nm” value [5] was 0.26 OD 450 nm, the “OD 450 nm” value [6] was 0.03 OD 450 nm and the “OD 450 nm” value [7] was 0.55 OD 450 nm. The “OD 450 nm” value [8] was 0.18 OD 450 nm, the “OD 450 nm” value [9] was 1.32 OD 450 nm and the “OD 450 nm” value [10] was 0.79 OD 450 nm. For the same binder, the “OD 450 nm” value [11] was 0.21 OD 450 nm.
